This sample holds only a part of the variants without activity.
B1: TPR 5TU (parent)
chain: GGAUCUUCUCGAUCUAACAAAAAAGACAAAUCUGCCACAAAGCUUGAGAGCAUCUUCGGAUGCAGAGGCGGCAGCCUUCGGUGGCGCGAUAGCGCCAACGUUCUCAACUAUGACACGCAAAACGCGUGCUCCGUUGAAUGGAGUUUAUCAUG

Variants of: B1
Experiment: polymerase ribozyme fitness, log enrichment relative to wild type (log ratio); higher = more active; in vitro selection for triplet polymerase activity
Procedure, shortened: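 In triplicate, a single round of in vitro selection was run on each mutant library, PCR-built and transcribed, covering one subunit of a heterodimeric triplet polymerase ribozyme. Frozen incubation at −7 °C followed annealing with a biotinylated primer, partner subunit and triplets, and extended constructs were then gel-excised, streptavidin-captured and taken through RT-PCR. Fitness is the logarithm of genotype enrichment over wild-type enrichment, from inverse-variance-weighted replicate averages of Illumina-sequenced inputs and outputs. […] only genotypes with ≥10 input reads and ≥1 read per output were kept.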

Variant	polymerase ribozyme fitness (log ratio)
C54U C76G A89C A91G G94U U146G	≤ -4.2
U53G A91G	-3.94
U56A A73U G140A	-4.06
C54U U56A C93U G133U	-4.06
U55G C85A C99U G136A	-3.43
U55G C69U G71U G128A	≤ -4.2
C54U U55A C93U	-0.48
U53C U77G G124C U135C	≤ -4.2
U55G C87A	-4.1
C54A G86A	-3.13
C54A C85G G124U	-3.78
U55G C93U C116U G141A U144G	-2.63
C54U G81A C93U C105A	-2.59
U53C U139G	0.0757
C54A G83A C99U	-3.7
U53C C54U	-1.25
U55A G128C U146A	-4.09
C54U A97U A107C	≤ -4.2
U55C C57G	0.125
U55G U82A G84U U102C	-3.21
U55A A60C C85U A89G	-4.15
U55A C57A G59C G80U A91U	≤ -4.2
U56A A73U C76A A97U	≤ -4.2
U55A G68A C76A C96G C114G G133A A138U	≤ -4.2

Variant	polymerase ribozyme fitness (log ratio)
U55A G84U G124A	-1.26
U55C A91G A106C C129U C131U	≤ -4.2
U55A A97G	-0.39
U55A G67U C69G C76A A98G	-2.81
C54U C85A A119U U130G	-3.83
C54U C103U C123A U148G	≤ -4.2
U55A U127A A142U	≤ -4.2
U55A C85G	-2.99
U55A C85A	-2.26
U55C	0.0178
U55A	-0.301
U55G	-0.284
U55A C76G U134G	≤ -4.2
C54U C99A U146G A150U	-3.6
U55A U109G	-1.03
U55A G62C G117A C131G	≤ -4.2
U55A C99G	-1.61
C54A C123U	-0.754
C54A C123G	-1.63
C54U C75U	-0.0882
U55C G88A C96U	≤ -4.2
C54U A142U	-0.665
C54U C118U U145A	-0.457
C54G G141A	-1.35

Variant	polymerase ribozyme fitness (log ratio)
U53G U61A C85U G94U A97U G152A	≤ -4.2
U55A A119G U148G	-3.77
U55G U148C	-2.46
U55A G88C U90C A122G G124A U148A	-4.18
C54A A89G U90A C99G	≤ -4.2
U55C G74U	≤ -4.2
U53C A122G	-0.671
U55A G62C G68U C96U A121U	≤ -4.2
U55C G59C A107C C131U U134G G136C	≤ -4.2
U55A G59U C87U	-2.31
U56A C76G	≤ -4.2
U55A C69A C76U U82G	-3.45
U55A C96A A107C C116A G124C U151A	≤ -4.2
U53A U56A C105U	-1.66
C54A C116U	-0.368
U55A C93U C95A	-2.89
C54A U56A G67U C85A G88A U101G G141C	≤ -4.2
U55G C103A	-2.99
C54U G83A A147U	-0.818
C54G A122G U144G	-0.687
C54U C87A A89G C96U A121U A142C	≤ -4.2
C54U C85U C116A	0.743
U55A A119G	-1.38
U56A C75G G94A C105U G133U	-4.17

Variant	polymerase ribozyme fitness (log ratio)
U56A A121C C149G	-3.14
U55A A97G C116A	1.12
C54U G80U	-0.459
U55G U56A U82A U145A	-1.23
C54U C85U G136U	-2.08
U55A C76G G92A A122G	≤ -4.2
U55G G84C A107G A142C	≤ -4.2
C54G A66U A137G	≤ -4.2
U56A C76G C85U A91G U111G C118U G140A G143A	≤ -4.2
U55G C57A G59C C85A A115G A119U	-2.01
U55G G71A C87G G112C	≤ -4.2
U55A A98U U111C	-4.16
C54A U77G C85U C93G G117C G136A	≤ -4.2
U55A A60G U102A U148A	-3.91
C54U G117C C123U	-0.0466
C54A C95A	-1.25
U53G C95U U139G	-1.58
U56A A106G	-0.585
U55G U61A	-3.22
U55A C76G C85A A113U G128A	≤ -4.2
U55A C87U A137C	-3.92
C54A G143C	-2.81
U55G G58C U144G	-0.023
C54A A89G	-2.13

Variant	polymerase ribozyme fitness (log ratio)
U56A A60G C79G A119C A121U	-3.78
U56A C76U C87U C129G A150C	≤ -4.2
U53A U55G C85A C95U A121C	≤ -4.2
U53C U56A G58A C76A A120G U134C	-3.01
U55A C63U C85U C103A G136A A147U	-0.434
U53A U151G	≤ -4.2
U55A C85U C116G G133C	-1.34
C54A C85G	-3
U55A A66U A98G A122U A150C	≤ -4.2
C54A A91U C108U G124U A138C G141A	≤ -4.2
C54U C76U C87U U127A U139C A142U C149G	≤ -4.2
U53C G94A A97G	-2.46
U55G C76A G92A C108U	≤ -4.2
U55A C116U	-0.684
C54A C85U C125G	-1.96
U56A C57U C63U U101A U104C C108U	≤ -4.2
C54G G86A C129G	-3.8
U53G C85G	-3.69
U55A C85G C125U U144A	-3.47
U55A G88A	≤ -4.2
C54A A60G G81A A91U A106U A110G G141C	≤ -4.2
C54A U61A A73G U77G G100A	≤ -4.2
C54G U55A G84A	-1.93
U53A U78A C85U U102C	≤ -4.2

Variant	polymerase ribozyme fitness (log ratio)
C54U C85U A98G U134A	-3.35
U55G C131A	-2.39
U56A C85U U144C	-0.306
U53G G59C A147C	-0.875
C54U U55A A120G G143U	-2.38
U55A G92U G124C	-0.918
U55A U148A	-3.84
U53G U90A C93G A110C	≤ -4.2
C54G G71C C85U C93U U144G	≤ -4.2
U55A C85A C93G	≤ -4.2
U53G C123A G126C	-1.32
U55G G58U G62C C85U A137G	-3.31
C54G A64G G94A G100U C105A	≤ -4.2
C54G C96U A142C	-3.34
U55A G83U A137G	-2.28
C54A C85U C108U	≤ -4.2
U55A U56A C57A C85U G86A C103G	≤ -4.2
U55G C96U C105U G143A	-0.651
C54U C85U U104G A119G G136A U146G A147G	-3.62
U55A G92U C96A G117A A121U	-1.48
U55G C79G	-3.78
C54U U55A C87A	≤ -4.2
U55A G94A	-0.894
U55A A106G A119C A122G	-0.869

Variant	polymerase ribozyme fitness (log ratio)
U55G C85U A91G G94A	-3.29
C54A U82A U134A U146C	-3.03
C54U U82C U90C C96A U101G	≤ -4.2
U53A U109G C116A G136C U144C	-4.07
C54U G58A C93U	-1.1
C54U U56A G70A C85A G86U C95G	≤ -4.2
U55G C116G	0.357
U56A C85A A91G G128U	≤ -4.2
C54A U56A C118U	-2.14
C54A G81A	-1.07
C54A C87U C93G U134G U135A	≤ -4.2
C54U U56A G84U	-0.698
U53A U61G C99U G136A	-3.67
U55A U90A G100C C118U	≤ -4.2
U55G G59U U127C	-2.75
U55G U56A G59C C99G A142G	-2.78
U53C C95U C125U A147U U148A U151G	≤ -4.2
U56A A89C	-0.735
U55G G88U	-4.02
U53G U56A A89G G94A A121G G141U G143A	≤ -4.2
C54U G58A G94U	-0.705
C54A G83C	-3.55
C54A C57G A60U C87U C95U G136A	-4.11
